According to publication PMC8184839:

Legend:
[1] = molecular target: cyclin D1 with the CDK6n-CDK4c chimera (UniProt P24385); assay: recruitment to a CDK tethered at the inner nuclear membrane, with FRAP; as a4 but with 6 µM palbociclib overnight and throughout, or 6 µM palbociclib, ribociclib or abemaciclib added acutely about 4-5 min after photobleaching
[2] = molecular target: CDK2-mTurquoise-Δ50 lamin A (UniProt P24941); assay: recruitment to a CDK tethered at the inner nuclear membrane, with FRAP; live RPE-1 cells with mVenus-cyclin and CDK-mTurquoise-Δ50 lamin A, p21 and p27 depleted by siRNA co-knockdown; recovery of mVenus after photobleaching; 37 °C

mRuby3-p21, sequence (P38936 whole entry): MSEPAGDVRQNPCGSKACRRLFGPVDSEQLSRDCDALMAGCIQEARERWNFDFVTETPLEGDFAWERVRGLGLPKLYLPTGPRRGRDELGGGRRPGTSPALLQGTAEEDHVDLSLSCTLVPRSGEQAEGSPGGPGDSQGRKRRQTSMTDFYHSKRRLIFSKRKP
cyclin D1 with the CDK6n-CDK4c chimera, sequence (P24385 whole entry, looked up, stated change not applied): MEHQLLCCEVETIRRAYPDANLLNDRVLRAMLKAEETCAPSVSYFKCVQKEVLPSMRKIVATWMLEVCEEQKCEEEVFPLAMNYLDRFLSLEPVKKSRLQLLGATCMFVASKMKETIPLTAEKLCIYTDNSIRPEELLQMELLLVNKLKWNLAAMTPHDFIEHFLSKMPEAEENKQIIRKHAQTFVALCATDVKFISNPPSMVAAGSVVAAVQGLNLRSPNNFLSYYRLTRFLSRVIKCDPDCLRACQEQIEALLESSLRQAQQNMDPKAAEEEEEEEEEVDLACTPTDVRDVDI
mVenus-cyclin E1, sequence (P24864 whole entry): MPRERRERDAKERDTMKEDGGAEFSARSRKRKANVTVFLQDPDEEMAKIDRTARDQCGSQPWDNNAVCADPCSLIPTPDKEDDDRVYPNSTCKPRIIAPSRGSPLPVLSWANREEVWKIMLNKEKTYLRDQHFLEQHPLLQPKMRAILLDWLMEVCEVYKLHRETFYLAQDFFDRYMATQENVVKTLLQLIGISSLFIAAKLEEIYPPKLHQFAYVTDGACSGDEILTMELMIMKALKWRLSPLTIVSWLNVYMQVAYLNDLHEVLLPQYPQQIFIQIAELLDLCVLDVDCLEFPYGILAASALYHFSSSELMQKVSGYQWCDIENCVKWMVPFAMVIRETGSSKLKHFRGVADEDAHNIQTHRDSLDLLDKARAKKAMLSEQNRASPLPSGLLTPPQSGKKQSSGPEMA

fold decrease in fold change of the off-rate with palbociclib against DMSO [1] [fold]	dissociation t-half [2] [min]	Substance
10		mRuby3-p21 (from UniProt P38936 1-164) (natural protein)
	3	mVenus-cyclin E1 (from UniProt P24864 1-410) (natural protein; other documents disagree on this pair)
